Results taken from article PMC6969161, “Rad50 zinc hook functions as a constitutive dimerization module interchangeable with SMC hinge” (Nature Communications, 2020).

T1: human Rad50 (human, UniProt Q92878 1-1312)
T1 construct: Captured by the 3xFLAG tag on anti-FLAG beads, then released by PreScission cleavage, so the tag is absent in the AFM samples; Expressed with Mre11 (and Nbs1) or alone; also called Rad50-3×FLAG; R of MRN, Mre11/Rad50 and M2R2; source: Sf9, baculovirus, purified (anti-FLAG M2 beads, eluted by PreScission cleavage, HiTrapQ, Superdex 200); not shown: 3xFLAG, C-terminal, cleaved
T1 sequence (looked up): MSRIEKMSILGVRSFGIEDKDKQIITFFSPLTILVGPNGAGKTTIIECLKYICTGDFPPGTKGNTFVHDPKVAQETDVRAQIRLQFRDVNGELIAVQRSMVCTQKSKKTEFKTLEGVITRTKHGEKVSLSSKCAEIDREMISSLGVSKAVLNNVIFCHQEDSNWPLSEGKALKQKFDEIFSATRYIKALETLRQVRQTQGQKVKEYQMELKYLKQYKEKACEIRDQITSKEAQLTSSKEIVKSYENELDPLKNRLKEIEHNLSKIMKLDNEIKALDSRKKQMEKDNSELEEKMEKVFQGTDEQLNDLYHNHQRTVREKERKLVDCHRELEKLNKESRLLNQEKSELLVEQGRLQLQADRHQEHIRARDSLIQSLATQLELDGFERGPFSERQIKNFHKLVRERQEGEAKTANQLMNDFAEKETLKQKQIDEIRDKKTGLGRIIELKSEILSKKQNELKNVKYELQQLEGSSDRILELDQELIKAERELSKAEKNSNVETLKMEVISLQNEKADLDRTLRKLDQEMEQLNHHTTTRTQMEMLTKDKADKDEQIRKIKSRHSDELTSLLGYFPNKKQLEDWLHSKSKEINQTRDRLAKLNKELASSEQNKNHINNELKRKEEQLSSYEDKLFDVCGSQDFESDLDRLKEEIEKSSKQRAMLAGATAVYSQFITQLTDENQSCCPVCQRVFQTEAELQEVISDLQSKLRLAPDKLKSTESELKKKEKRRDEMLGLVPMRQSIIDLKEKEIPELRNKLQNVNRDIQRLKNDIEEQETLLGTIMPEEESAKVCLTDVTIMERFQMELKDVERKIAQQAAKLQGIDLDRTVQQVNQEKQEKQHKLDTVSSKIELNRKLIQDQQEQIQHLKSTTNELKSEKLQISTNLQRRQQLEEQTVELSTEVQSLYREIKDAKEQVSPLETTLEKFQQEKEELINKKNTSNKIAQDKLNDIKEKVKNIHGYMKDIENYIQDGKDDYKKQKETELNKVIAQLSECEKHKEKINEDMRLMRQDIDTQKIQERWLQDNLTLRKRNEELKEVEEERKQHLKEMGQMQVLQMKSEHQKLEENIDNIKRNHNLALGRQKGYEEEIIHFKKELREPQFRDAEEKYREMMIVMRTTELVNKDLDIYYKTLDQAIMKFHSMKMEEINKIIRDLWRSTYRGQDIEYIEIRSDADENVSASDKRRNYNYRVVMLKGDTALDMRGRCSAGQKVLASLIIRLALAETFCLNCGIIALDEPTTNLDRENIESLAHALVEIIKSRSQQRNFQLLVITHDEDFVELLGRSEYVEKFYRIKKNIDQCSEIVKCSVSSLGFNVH


Columns and labels:
human Rad50 = target: T1, human Rad50; assay: co-purification (anti-FLAG affinity, ion exchange, size exclusion); proteins co-expressed in Sf9 cells; extract at 200 mM KCl on anti-FLAG M2 beads by Rad50-3×FLAG, eluted by PreScission cleavage, HiTrapQ; wild-type Mre11/Rad50 further on Superdex 200; molar ratio from the purified preparations; settings: partners not purified
[1] = target: the molecule itself; assay: high-speed AFM; purified complexes on bare mica, imaged in 25 mM Tris-HCl pH 7.5, 75 mM KCl, 3 mM MgCl2, tapping mode; with or without 1 mM ATP or ATP-γ-S

Row | Binder | stoichiometry N (human Rad50) | binding result [1]
1 | human Mre11 (natural protein, UniProt P49959 1-708, looked up, Mre11, human, from human MRE11 cDNA in pFASTBAC1; also called M of MRN, Mre11/Rad50 and M2R2; source: Sf9, baculovirus, co-purified with Rad50-3×FLAG (anti-FLAG M2 beads, HiTrapQ, Superdex 200)) MSTADALDDENTFKILVATDIHLGFMEKDAVRGNDTFVTLDEILRLAQENEVDFILLGGDLFHENKPSRKTLHTCLELLRKYCMGDRPVQFEILSDQSVNFGFSKFPWVNYQDGNLNISIPVFSIHGNHDDPTGADALCALDILSCAGFVNHFGRSMSVEKIDISPVLLQKGSTKIALYGLGSIPDERLYRMFVNKKVTMLRPKEDENSWFNLFVIHQNRSKHGSTNFIPEQFLDDFIDLVIWGHEHECKIAPTKNEQQLFYISQPGSSVVTSLSPGEAVKKHVGLLRIKGRKMNMHKIPLHTVRQFFMEDIVLANHPDIFNPDNPKVTQAIQSFCLEKIEEMLENAERERLGNSHQPEKPLVRLRVDYSGGFEPFSVLRFSQKFVDRVANPKDIIHFFRHREQKEKTGEEINFGKLITKPSEGTTLRVEDLVKQYFQTAEKNVQLSLLTERGMGEAVQEFVDKEEKDAIEELVKYQLEKTQRFLKERHIDALEDKIDEEVRRFRETRQKNTNEEDDEVREAMTRARALRSQSEESASAFSADDLMSIDLAEQMANDSDDSISAATNKGRGRGRGRRGGRGQNSASRGGSQRGRADTGLETSTRSRNSKTAVSASRNMSIIDAFKSTRQQPSRNVTTKNYSEVIEVDESDVEEDIFPTTSKTDQRWSSTSSSKIMSQSQVSKGVDFESSEDDDDDPFMNTSSLRRNRR | ~1 Rad50 to Mre11, molar ratio | –
2 | E. coli SbcC (natural protein, SbcC (E. coli Rad50), E. coli; also called E. coli Rad50; SbcC of SbcCD; source: E. coli DL776 with plasmid pDL761, purified as SbcCD (HiTrap DEAE, ammonium precipitation, Superose 6, Mono Q)) not shown | – | binds
3 | S. pombe Rad50 (natural protein, UniProt Q9UTJ8 1-1285, looked up, Rad50, S. pombe; The host is a wild-type strain, so endogenous Rad50 and Mre11 were also present; also called fission yeast Rad50; rad50:TEV:PA; source: S. pombe CA3, from pREP1-rad50:TEV:PA, co-purified with Mre11-3xFLAG (anti-FLAG M2 agarose, HRV3C elution, Superose 6HR)) MSCIDRMSIMGIRSFDNRSRESIQFFSPLTLIVGQNGSGKTTIIECLKYATTGILPPNTKGGAFIHDPKICGEKEVLAQVKLAFRNTNQVKMICTRSLQLSVKKTTRQQKTLDGQLLILKDNERTTISNRCAELDSQVPLSLGVSKALLDYVIFCHQEESFWPLSEPANLKKRFDEIFESLRYAKALDQIKGLKRDQETQVKVDQATLTHYRSDKERAEKIELRVHESLKRISCIRSKVEELDQEITETARLQDELFKSTEEYEQQMITIRHLESQSDIINTTINDLKSQMTITDESSEDLEKLHSNFAEKVKEEQELYKSLEKKRSDLESLLKSRRELLEKLTGDLGKIQGEIESLEKLKVKKSTMINEIVHRYNINEINEEGIMTEVSKYASLVNKNYEISSGKLKERQVAVRARIEGIKAHEMFLNNRVSEINSSLEKQLTTQKELRSRFEILFPVKLQREDFTKDVEKSDLWIKSLRQEYESKNLLELLDKHQTALSSVENRLDEISEIVDSYHKYSGVRTKLQVFEENKTNKSAILANQLMTLKSSFSEVMSYELKDDDNYNEELDKLVEDVRKKLQEKEEAESSLRSVRERLEIRISLSVQSINDLTENKKIKTKTLKSYSGTFASMISEIKALESEIEENRKTLHSLQFGSTFYEKAIEICVDQHACQLCQRSLDKEEEKLFVEHCHSMIDVIPSKSAEVYSHLETLTKTFKNLSEAKPIFDEIELLDKRLSETKTELSDLQGDLQGLDIRKDEIQSELDTLYLRRANLEKLQLLVKDISNLEEEIRTIDRETEVLRIELPSSIAHHNLDEIYAEREKLLEKRGYLRKQIERTKLEETSFKKKIDDAVLANNEQKLKLTKLNFQVNELEQLEKDINKSSEDCDLQKKKLLEVSSKQGSQAPFLNELESEYEKLEADIQEMAQKSRTEILEANEYLHQLNEWNSELRIDVSTKFKCIKEKKSNIGEEVRIIASKIESTDDNLRKLQERLADLRTRERNASDNLRLRALMRQLEEAVTQKNYLLSQQSHDDRESFRERMQILKSKYGALNAERAGLLGECKQLENSITKDKEELNMEFKDADERFRRQLIKTKTTGKANEDLGKYAKALDVAIMQLHSMKMNEINRIVDELWKQTYCGTDIDTILIRSDSEGKGNRTYNYRVCMVKGDAELDMRGRCSAGQKVLACIIIRLALAECLGVNCGILALDEPTTNLDEENICSLAKNLSRIVEFRRKQANFQLIVITHDEQFIRLVNSDAYCSYYYRVKRDTNQKSMIVKEPL | – | binds
